Laboratory results reported in the RNAGym collection of RNA variant scans (doi:10.1073/pnas.2313332121).

B1: TPR t1 (parent)
chain: GACCAAUCUGCCCUCAGAGCUCGAGAACAUCUUCGGAUGCAGAGGAGGCAGGCUUCGGUGGCGCGAUAGCGCCAACGUCCUCAACCUCCAAUGCAUCCCACCACAUGAUGAUGCCUGAAGAGCCUUGGUUUUUUG

Variants of: B1
Assay: polymerase ribozyme fitness, log enrichment relative to wild type (log ratio); higher = more active; in vitro selection for triplet polymerase activity
Method in brief: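 Frozen incubation at −7 °C formed the core of a single, triplicate in vitro selection round applied to PCR-built, transcribed mutant libraries of each subunit of a heterodimeric triplet polymerase ribozyme. Extended constructs were gel-excised, captured with streptavidin beads and amplified by RT-PCR, and input and output libraries were Illumina-sequenced with a filter of ≥10 input reads and ≥1 read per output. Fitness is the logarithm of genotype enrichment relative to wild-type enrichment, with inverse-variance-weighted replicate averaging, and the logarithm is base 2.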

| Variant | polymerase ribozyme fitness (log ratio) |
| --- | --- |
| C79A G93A | -1.37 |
| U78G C82G | -0.36 |
| U78A G117U | -2.81 |
| C76G G120U U129A | -1.93 |
| G77A C97U | -0.317 |
| C76U U96G U116G | -3.28 |
| C79G C101A | -3.09 |
| C79G C101U | -1.49 |
| U78A C79U U112A U131G | 0.67 |
| U78C U129A | -1.01 |
| A74U U87G U106G A121U | -0.122 |
| A74U U129A | -1.52 |
| U78C C89U C115A | -0.146 |
| G77A C123G G135U | 0.853 |
| A75U C97U | -0.863 |
| U78C U112C | 2.04 |
| A75G G93C U116A | -4.1 |
| G77A C115U G128A | -3.21 |
| U78C C79G U106A | -0.519 |
| C76U U106C G128C | -3.51 |
| U78A G93C | -0.506 |
| C76U C94U C104U U131C | -0.407 |
| G77A C80A G120U | -2.54 |
| U78C C104A G113U | -4.71 |

| Variant | polymerase ribozyme fitness (log ratio) |
| --- | --- |
| A75U U81G | -3.97 |
| U78A C79U | 0.293 |
| C76A C79U A90U A119C G120U | -1.56 |
| A75G C82U A83C G93A A105C | -3.08 |
| A75G C102A | -1.52 |
| A75U G110U A121U | -1.08 |
| G77C C86U A90C U125A | -1.83 |
| C76U U78G | -0.0426 |
| C76U C88A U133G | -0.912 |
| U78C G128A | -1.95 |
| C79A A84G | -3.26 |
| U78C A118G | -0.499 |
| A74U G110A C115U | -6.32 |
| C76U U81C A100U G110A | -3.78 |
| U78C C97U A103U C123G | -4.59 |
| U78A C104A | -1.8 |
| C79G C85U | -2.29 |
| C79A G128C | -3.31 |
| C76A C98U | -1.53 |
| U78G A103C U130C | -5.75 |
| G77U A95C C102A | -3.06 |
| G77A G93A A100G U112C U131A | -2.12 |
| C76A C102A | -3.94 |
| G77A U81C | 0.0727 |

| Variant | polymerase ribozyme fitness (log ratio) |
| --- | --- |
| C79A A105U | -4.41 |
| U78C C80A U116G G120C C123A | -1.86 |
| C79A C88A | -1.22 |
| C79A C88G | -2.33 |
| C76G U109C A119U C123A | -6.47 |
| G77C U96C G117A | -2.46 |
| C79G C123G | 0.221 |
| U78C U87A C98U | -1.12 |
| C79G A84U | -2.3 |
| U78C U81A A83G | -0.944 |
| U78G A90C | -1.6 |
| C79G U112C G122C | -0.637 |
| C79A G120C | 0.837 |
| G77U U78A A118U | -3.74 |
| G77C U78G U106A | -0.0347 |
| U78C C88A U106G C114G | -3.35 |
| U78C A90C | -0.796 |
| C79U A111U A121U | -3.62 |
| G77A C80A U92C | -5.14 |
| G77U U109A U116G | -7.07 |
| C76G G122A | -1.36 |
| U78G A111U | -3.77 |
| C79A A111G | -0.997 |
| C76G G113U | -4.13 |

| Variant | polymerase ribozyme fitness (log ratio) |
| --- | --- |
| G77C G110A A118C | -1.65 |
| G77A G110U | -1.1 |
| G77A G110A | -1.28 |
| C79A | -1.04 |
| C79G | -1.54 |
| C79U | -0.19 |
| C76A C82U A95G C104G G120C | -5.79 |
| U78G C101G | -1.76 |
| C79A U92C G110C U125G | -5.23 |
| G77A C114G U130C | -2.63 |
| C76U U129G | -0.833 |
| U78C G120C | 0.45 |
| U78C G120U | -0.256 |
| A75G G128A | -1.5 |
| G77A U78G | -0.219 |
| G77U C89U | -0.519 |
| A74U G120A C124G | 2 |
| U78C C104U | 0.332 |
| U78C C104A | -1.61 |
| G77U C89A U109A | -6.3 |
| C76G G113A G122C G135U | -2.49 |
| C76U G120C | 0.737 |
| A75G U87A | -0.246 |
| C79A G93A G110U | -4.93 |

| Variant | polymerase ribozyme fitness (log ratio) |
| --- | --- |
| G77A U87A C101G | -2.13 |
| G77A U92G C94A C99G A111C | -8.36 |
| A75G U96A U106G | -3.41 |
| G77C U130G | -1.48 |
| C79G A121C | 0.144 |
| U78A C104A C114A | -5.24 |
| U78G C123A | -1.06 |
| G77C G120C | 0.526 |
| C76G G120A | 0.286 |
| A74U U112A G113C A118C | -3.21 |
| C79A G113A | -2.27 |
| G77C A95C G113A | -2.42 |
| C76G A118G G122U | -0.593 |
| U78A G107A | -5.55 |
| U78C C101U G120U A121U U132A | 1.42 |
| G77U C104G | -6.6 |
| A75G A90C C101G | -4.09 |
| C79G C123G U133A | 0.663 |
| C76A C85G | -1.03 |
| A75U C79G C88U U130G | -2.82 |
| U78A C85U U112A | 0.505 |
| U78C C102A G117C | -6.34 |
| U78C C101U | -0.647 |
| A74U C123U | 0.766 |

| Variant | polymerase ribozyme fitness (log ratio) |
| --- | --- |
| U78C C115A | -0.63 |
| G77U G120A | -0.148 |
| G77U G120C | 0.43 |
| G77C U78C A105G A119G | -1.64 |
| U78A U87A | -0.201 |
| C76G C88G | -1.08 |
| A74U G120A | 0.0292 |
| U78A C94A | -0.841 |
| U78A U96C C104U | 0.046 |
| U78C U116G G117A | -2.14 |
| C76A A118G | -0.854 |
| A74U C98A C99A | -6.51 |
| A74U C115G U129A U130A | -2.87 |
| U78A G113C U130C | -3.05 |
| U78A G128A | -1.76 |
| U78A G113U | -3.98 |
| U78A G113A | -1.22 |
| C79G U109A | -7.49 |
| U78A G110A | -1.32 |
| C76U G107C A121G U126A | -4.6 |
| U78A U131C | 0.382 |
| C79U A95C G120A | -0.000389 |
| C76G C88A C101A U130A | -1.71 |
| U78G C86G C101U | -1.51 |

| Variant | polymerase ribozyme fitness (log ratio) |
| --- | --- |
| U78C C88U | 0.285 |
| U78C A83U G107U | -5.42 |
| C79G A103G | -5.92 |
| C79A C102U | -4.37 |
| U78G C79A A118G U130G | -2.19 |
| G77C A121U | 0.189 |
| U78C C85G U106A | -2.34 |
| U78A C88U U96G U129A U131A | -2.62 |
| C79A U112A C115A C123G | 0.259 |
| G77A U92C G117C | -5.8 |
| U78C U106G | -1.09 |
| C76A C102A C123A | -3.55 |
| C76U A91G | -2.17 |
| C76U A91C | -2.38 |
| U78C G117U | -2.53 |
| C79A C123A | -0.392 |
| U78C G93A C101U C123U | -0.0122 |
| C76U U87A G110A U130G | -2.07 |
| C79U A105C | -1.36 |
| A75U G117C | -3.99 |
| C76U A121C | 2.01 |
| C76U A121U | 2.22 |
| C79U A95C | -0.848 |
